{"source": "the supplement of paper PMC10567573", "parents": {"B1": {"name": "CCDC89 (parent)", "chain": "LNAELEEKMMQEAEKLKAQGEYSR"}, "B2": {"name": "EIF5 (parent)", "chain": "KQTIGNSCKACGYRGMLDTHHKLC"}}}
{"variants_of": "B1", "test": "protein stability index of a GFP-peptide fusion (GPS, HEK-293T) (PSI 1-6); higher = more stable", "conditions": "c terminus: a fixed tail appended"}
{"variant": "LNAELEEKMMQEAEKLKAQGEMSR", "note": "[Y22M]", "protein stability index": 5.29}
{"variant": "LNAELEEKMMQEAEKLKAQGENSR", "note": "[Y22N]", "protein stability index": 5.79}
{"variant": "LNAELEEKMMQEAEKLKAQGEQSR", "note": "[Y22Q]", "protein stability index": 5.64}
{"variant": "LNAELEEKMMQEAEKLKAQGESSR", "note": "[Y22S]", "protein stability index": 5.28}
{"variant": "LNAELEEKMMQEAEKLKAQGEYAR", "note": "[S23A]", "protein stability index": 4.62}
{"variant": "LNAELEEKMMQEAEKLKAQGEYCR", "note": "[S23C]", "protein stability index": 4.73}
{"variant": "LNAELEEKMMQEAEKLKAQGEYDR", "note": "[S23D]", "protein stability index": 5.7}
{"variant": "LNAELEEKMMQEAEKLKAQGEYFR", "note": "[S23F]", "protein stability index": 4.75}
{"variant": "LNAELEEKMMQEAEKLKAQGEYGR", "note": "[S23G]", "protein stability index": 5.13}
{"variant": "LNAELEEKMMQEAEKLKAQGEYHR", "note": "[S23H]", "protein stability index": 3.95}
{"variant": "LNAELEEKMMQEAEKLKAQGEYIR", "note": "[S23I]", "protein stability index": 4.19}
{"variant": "LNAELEEKMMQEAEKLKAQGEYKR", "note": "[S23K]", "protein stability index": 4.92}
{"variant": "LNAELEEKMMQEAEKLKAQGEYLR", "note": "[S23L]", "protein stability index": 5.2}
{"variant": "LNAELEEKMMQEAEKLKAQGEYMR", "note": "[S23M]", "protein stability index": 5.11}
{"variant": "LNAELEEKMMQEAEKLKAQGEYNR", "note": "[S23N]", "protein stability index": 4.51}
{"variant": "LNAELEEKMMQEAEKLKAQGEYQR", "note": "[S23Q]", "protein stability index": 5.04}
{"variant": "LNAELEEKMMQEAEKLKAQGEYTR", "note": "[S23T]", "protein stability index": 4.98}
{"variant": "LNAELEEKMMQEAEKLKAQGEYVR", "note": "[S23V]", "protein stability index": 4.43}
{"variant": "LNAELEEKMMQEAEKLKAQGEYWR", "note": "[S23W]", "protein stability index": 4.97}
{"variant": "LNAELEEKMMQEAEKLKAQGEYYR", "note": "[S23Y]", "protein stability index": 4.47}
{"variant": "LNAELEEKMMQEAEKLKAQGEYSA", "note": "[R24A]", "protein stability index": 5.49}
{"variant": "LNAELEEKMMQEAEKLKAQGEYSC", "note": "[R24C]", "protein stability index": 5.37}
{"variant": "LNAELEEKMMQEAEKLKAQGEYSD", "note": "[R24D]", "protein stability index": 5.67}
{"variant": "LNAELEEKMMQEAEKLKAQGEYSF", "note": "[R24F]", "protein stability index": 4.66}
{"variant": "LNAELEEKMMQEAEKLKAQGEYSG", "note": "[R24G]", "protein stability index": 5.81}
{"variant": "LNAELEEKMMQEAEKLKAQGEYSH", "note": "[R24H]", "protein stability index": 5.78}
{"variant": "LNAELEEKMMQEAEKLKAQGEYSI", "note": "[R24I]", "protein stability index": 4.86}
{"variant": "LNAELEEKMMQEAEKLKAQGEYSK", "note": "[R24K]", "protein stability index": 5.53}
{"variant": "LNAELEEKMMQEAEKLKAQGEYSM", "note": "[R24M]", "protein stability index": 4.99}
{"variant": "LNAELEEKMMQEAEKLKAQGEYSN", "note": "[R24N]", "protein stability index": 5.03}
{"variant": "LNAELEEKMMQEAEKLKAQGEYSP", "note": "[R24P]", "protein stability index": 5.48}
{"variant": "LNAELEEKMMQEAEKLKAQGEYSQ", "note": "[R24Q]", "protein stability index": 4.63}
{"variant": "LNAELEEKMMQEAEKLKAQGEYSS", "note": "[R24S]", "protein stability index": 5.38}
{"variant": "LNAELEEKMMQEAEKLKAQGEYSV", "note": "[R24V]", "protein stability index": 5.64}
{"variant": "LNAELEEKMMQEAEKLKAQGEYSW", "note": "[R24W]", "protein stability index": 3.81}
{"variants_of": "B2", "test": "protein stability index of a GFP-peptide fusion (GPS, HEK-293T) (PSI 1-6); higher = more stable", "conditions": "c terminus: a fixed tail appended"}
{"variant": "AQTIGNSCKACGYRGMLDTHHKLC", "note": "[K1A]", "protein stability index": 2.98}
{"variant": "CQTIGNSCKACGYRGMLDTHHKLC", "note": "[K1C]", "protein stability index": 2.97}
{"variant": "DQTIGNSCKACGYRGMLDTHHKLC", "note": "[K1D]", "protein stability index": 3.88}
{"variant": "EQTIGNSCKACGYRGMLDTHHKLC", "note": "[K1E]", "protein stability index": 2.95}
{"variant": "FQTIGNSCKACGYRGMLDTHHKLC", "note": "[K1F]", "protein stability index": 2.55}
{"variant": "GQTIGNSCKACGYRGMLDTHHKLC", "note": "[K1G]", "protein stability index": 3.35}
{"variant": "HQTIGNSCKACGYRGMLDTHHKLC", "note": "[K1H]", "protein stability index": 2.95}
{"variant": "IQTIGNSCKACGYRGMLDTHHKLC", "note": "[K1I]", "protein stability index": 2.04}
{"variant": "LQTIGNSCKACGYRGMLDTHHKLC", "note": "[K1L]", "protein stability index": 2.9}
{"variant": "MQTIGNSCKACGYRGMLDTHHKLC", "note": "[K1M]", "protein stability index": 2.36}
{"variant": "NQTIGNSCKACGYRGMLDTHHKLC", "note": "[K1N]", "protein stability index": 3.22}
{"variant": "PQTIGNSCKACGYRGMLDTHHKLC", "note": "[K1P]", "protein stability index": 3.6}
{"variant": "QQTIGNSCKACGYRGMLDTHHKLC", "note": "[K1Q]", "protein stability index": 3.14}
{"variant": "RQTIGNSCKACGYRGMLDTHHKLC", "note": "[K1R]", "protein stability index": 3.18}
{"variant": "SQTIGNSCKACGYRGMLDTHHKLC", "note": "[K1S]", "protein stability index": 3.31}
{"variant": "TQTIGNSCKACGYRGMLDTHHKLC", "note": "[K1T]", "protein stability index": 3.48}
{"variant": "VQTIGNSCKACGYRGMLDTHHKLC", "note": "[K1V]", "protein stability index": 2.95}
{"variant": "WQTIGNSCKACGYRGMLDTHHKLC", "note": "[K1W]", "protein stability index": 3.05}
{"variant": "YQTIGNSCKACGYRGMLDTHHKLC", "note": "[K1Y]", "protein stability index": 2.55}
{"variant": "KATIGNSCKACGYRGMLDTHHKLC", "note": "[Q2A]", "protein stability index": 3.48}
{"variant": "KCTIGNSCKACGYRGMLDTHHKLC", "note": "[Q2C]", "protein stability index": 3.09}
{"variant": "KDTIGNSCKACGYRGMLDTHHKLC", "note": "[Q2D]", "protein stability index": 2.84}
{"variant": "KETIGNSCKACGYRGMLDTHHKLC", "note": "[Q2E]", "protein stability index": 3.74}
{"variant": "KFTIGNSCKACGYRGMLDTHHKLC", "note": "[Q2F]", "protein stability index": 2.54}
{"variant": "KGTIGNSCKACGYRGMLDTHHKLC", "note": "[Q2G]", "protein stability index": 3.22}
{"variant": "KHTIGNSCKACGYRGMLDTHHKLC", "note": "[Q2H]", "protein stability index": 3.6}
{"variant": "KITIGNSCKACGYRGMLDTHHKLC", "note": "[Q2I]", "protein stability index": 2.51}
{"variant": "KKTIGNSCKACGYRGMLDTHHKLC", "note": "[Q2K]", "protein stability index": 3.18}
{"variant": "KLTIGNSCKACGYRGMLDTHHKLC", "note": "[Q2L]", "protein stability index": 2.61}
{"variant": "KMTIGNSCKACGYRGMLDTHHKLC", "note": "[Q2M]", "protein stability index": 2.85}
{"variant": "KNTIGNSCKACGYRGMLDTHHKLC", "note": "[Q2N]", "protein stability index": 3.02}
{"variant": "KPTIGNSCKACGYRGMLDTHHKLC", "note": "[Q2P]", "protein stability index": 3.5}
{"variant": "KRTIGNSCKACGYRGMLDTHHKLC", "note": "[Q2R]", "protein stability index": 2.56}
{"variant": "KSTIGNSCKACGYRGMLDTHHKLC", "note": "[Q2S]", "protein stability index": 3.05}
{"variant": "KTTIGNSCKACGYRGMLDTHHKLC", "note": "[Q2T]", "protein stability index": 3.05}
{"variant": "KVTIGNSCKACGYRGMLDTHHKLC", "note": "[Q2V]", "protein stability index": 3}
{"variant": "KWTIGNSCKACGYRGMLDTHHKLC", "note": "[Q2W]", "protein stability index": 1.93}
{"variant": "KYTIGNSCKACGYRGMLDTHHKLC", "note": "[Q2Y]", "protein stability index": 2.19}
{"variant": "KQAIGNSCKACGYRGMLDTHHKLC", "note": "[T3A]", "protein stability index": 3.04}
{"variant": "KQCIGNSCKACGYRGMLDTHHKLC", "note": "[T3C]", "protein stability index": 2.92}
{"variant": "KQDIGNSCKACGYRGMLDTHHKLC", "note": "[T3D]", "protein stability index": 4.01}
{"variant": "KQEIGNSCKACGYRGMLDTHHKLC", "note": "[T3E]", "protein stability index": 2.99}
{"variant": "KQFIGNSCKACGYRGMLDTHHKLC", "note": "[T3F]", "protein stability index": 2.86}
{"variant": "KQGIGNSCKACGYRGMLDTHHKLC", "note": "[T3G]", "protein stability index": 3.15}
{"variant": "KQHIGNSCKACGYRGMLDTHHKLC", "note": "[T3H]", "protein stability index": 3.67}
{"variant": "KQIIGNSCKACGYRGMLDTHHKLC", "note": "[T3I]", "protein stability index": 2.71}
{"variant": "KQKIGNSCKACGYRGMLDTHHKLC", "note": "[T3K]", "protein stability index": 3.4}
{"variant": "KQLIGNSCKACGYRGMLDTHHKLC", "note": "[T3L]", "protein stability index": 3.23}
{"variant": "KQMIGNSCKACGYRGMLDTHHKLC", "note": "[T3M]", "protein stability index": 3.5}
{"variant": "KQNIGNSCKACGYRGMLDTHHKLC", "note": "[T3N]", "protein stability index": 3.31}
{"variant": "KQPIGNSCKACGYRGMLDTHHKLC", "note": "[T3P]", "protein stability index": 3.66}
{"variant": "KQQIGNSCKACGYRGMLDTHHKLC", "note": "[T3Q]", "protein stability index": 3.06}
{"variant": "KQRIGNSCKACGYRGMLDTHHKLC", "note": "[T3R]", "protein stability index": 3.18}
{"variant": "KQSIGNSCKACGYRGMLDTHHKLC", "note": "[T3S]", "protein stability index": 3.19}
{"variant": "KQVIGNSCKACGYRGMLDTHHKLC", "note": "[T3V]", "protein stability index": 2.38}
{"variant": "KQWIGNSCKACGYRGMLDTHHKLC", "note": "[T3W]", "protein stability index": 2.46}
{"variant": "KQYIGNSCKACGYRGMLDTHHKLC", "note": "[T3Y]", "protein stability index": 3.35}
{"variant": "KQTAGNSCKACGYRGMLDTHHKLC", "note": "[I4A]", "protein stability index": 3.68}
{"variant": "KQTCGNSCKACGYRGMLDTHHKLC", "note": "[I4C]", "protein stability index": 3.24}
